Test results from the supplement of paper PMC10567573.

B1: CD69 (parent)
chain: FVAENSSLHPESGQENDATSPHFS
B2: STK38L (parent)
chain: NWKETLVFPPEVPISEKAKDLILR

Variants of: B1
Assay: protein stability index of a GFP-peptide fusion (GPS, HEK-293T) (PSI 1-6); higher = more stable
Conditions: c terminus: a fixed tail appended
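Note: lentivirally expressed fusions sorted by FACS into six bins by GFP to DsRed ratio, PSI derived from sequencing read proportions per bin multiplied by bin number.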

Protein stability index: each site, then its substitutions
N5: A 3.1; L 2.95; G 3.21; S 2.57; T 2.77; D 4.57; K 2.69; Y 2.87; P 2.56; W 1.99; V 2.96; I 2.16; M 2.45; Q 3.22; C 2.5; R 2.16; F 1.94; E 3.7; H 2.61
S7: P 3.11; D 4.39; A 3.13; H 2.83; I 2.39; Q 3.37; T 3.24; R 2.13; N 3.3; V 2.73; E 4.06; L 2.67; G 3.29; C 2.46; F 2.27; M 2.22; W 3.07; Y 1.93; K 2.51
V2: H 4; Q 4.86; L 5; R 5.36; D 5.18; W 4.86; A 4.94; P 5.46; I 4.44; E 5.5; K 5.4; N 5.25; T 5.17; F 5.13; S 5.39; G 5.26; M 4.87; Y 4.84; C 4.82
A3: N 3.21; H 3.03; Y 3.02; F 3.02; D 2.95; R 2.88; G 2.98; E 3.57; S 2.56; C 2.73; V 3.43; I 2.86; K 2.95; L 2.95; P 2.41; M 3.11; W 2.82; T 3.12; Q 3.27
E4: C 1.93; A 2.85; S 2.44; R 2.17; H 2.5; W 3.23; L 2.9; V 3.2; P 3.51; G 3.99; T 2.37; N 2.87; I 2.42; Y 2.39; D 2.61; K 2.89; M 2.1; F 2.18; Q 3.31
L8: Y 2.28; V 3.01; P 3.41; H 3.04; A 3.41; N 3.65; T 3.64; K 2.68; D 3.62; Q 3.62; R 2.49; G 3.78; C 2.8; S 3.75; I 3.24; M 3.06; F 2.4; W 1.72; E 3.86
S6: K 2.72; R 2.27; N 2.69; G 3.37; I 2.38; F 2.21; M 2.55; W 2.07; Q 3.08; P 2.58; V 2.48; H 3.01; A 2.96; Y 2.85; T 3.34; L 1.5; D 4.33; C 2.46; E 4.05
F1: S 5.4; W 5.2; R 5.12; P 5.51; E 5.62; C 5.02; N 5.39; A 4.81; L 5.13; M 5.49; H 4.98; D 5.78; Y 3.64; T 5.58; V 4.96; I 5.04; Q 5.65; G 5.41; K 5.78

Variants of: B2
Assay: as above
Conditions: c terminus: a fixed tail appended

Protein stability index of substitutions, site by site:
R24: K 3.6; S 3.31; L 2.03; I 1.88; H 3.16; W 2.11; V 1.91; Y 1.63; G 3.9; Q 2.83; F 2.13; T 3.59; M 2.64; N 3.96; P 3.43
